Reference: the Immune Epitope Database (IEDB)

Tests used:
HLA-A*11:01 = test: IEDB peptide-MHC binding, purified MHC/competitive/fluorescence; filed as Kd, often an IC50 or EC50 that approximates it; ≥ and ≤ were set here for values at or beyond the usual limits of such assays; conditions: source organism: Human immunodeficiency virus 1
HLA-A*30:01 = test: as above; conditions: source organism: Human immunodeficiency virus 1
HLA-A*26:03 = test: as above; conditions: source organism: Human immunodeficiency virus 1
HLA-A*03:01 = test: as above; conditions: source organism: Human immunodeficiency virus 1
HLA-B*08:03 = test: as above; conditions: source organism: Human immunodeficiency virus 1
HLA-B*08:02 = test: as above; conditions: source organism: Human immunodeficiency virus 1
HLA-A*26:02 = test: as above; conditions: source organism: Human immunodeficiency virus 1
HLA-A*31:01 = test: as above; conditions: source organism: Human immunodeficiency virus 1
HLA-A*29:02 = test: IEDB peptide-MHC binding, purified MHC/competitive/radioactivity; filed as Kd, often an IC50 or EC50 that approximates it; ≥ and ≤ were set here for values at or beyond the usual limits of such assays; conditions: source organism: Homo sapiens
HLA-A*02:07 = test: as above; conditions: source organism: Homo sapiens
HLA-B*57:01 = test: as above; conditions: source organism: Homo sapiens
HLA-A*02:01 = test: as above; conditions: source organism: Homo sapiens
HLA-B*58:01 = test: as above; conditions: source organism: Homo sapiens
HLA-B*15:02 = test: IEDB peptide-MHC binding, purified MHC/direct/fluorescence; filed as Kd, often an IC50 or EC50 that approximates it; ≥ and ≤ were set here for values at or beyond the usual limits of such assays; conditions: source organism: Cryptosporidium parvum Iowa II
HLA-B*46:01 = test: as above; conditions: source organism: Neogale vison

Sequence | Kd (HLA-A*11:01) [nM] | Kd (HLA-A*30:01) [nM] | Kd (HLA-A*26:03) [nM] | Kd (HLA-A*03:01) [nM] | Kd (HLA-B*08:03) [nM] | Kd (HLA-B*08:02) [nM] | Kd (HLA-A*26:02) [nM] | Kd (HLA-A*31:01) [nM] | Kd (HLA-A*29:02) [nM] | Kd (HLA-A*02:07) [nM] | Kd (HLA-B*57:01) [nM] | Kd (HLA-A*02:01) [nM] | Kd (HLA-B*58:01) [nM] | Kd (HLA-B*15:02) [nM] | Kd (HLA-B*46:01) [nM]
IATLYCVHQK | 1700 | ≥ 5000 | ≥ 20000 | ≥ 20000 | ≥ 20000 | ≥ 20000 | ≥ 20000 | ≥ 20000 | – | – | – | – | – | – | –
KMKEIAEAY | – | – | – | – | – | – | – | – | 88.9 | ≥ 53400 | 2870 | ≥ 78100 | 2030 | 184 | 446
